Reference: paper PMC13090976 (Cell Stress & Chaperones, 2026)

B1: human CHIP-TPR (residues 21-154) [human] / biotin-GSGSGP(pT)IEEVD [modified: biotin, printed before the first residue; phosphothreonine (pT; Thr636 in HSPA1A numbering); biotin, printed before the first residue; phosphothreonine (pT; … (parent complex)
chain 1: EKSPSAQELKEQGNRLFVGRKYPEAAACYGRAITRNPLVAVYYTNRALCYLKMQQHEQALADCRRALELDGQSVKAHFFLGQCQLEMESYDEAIANLQRAYSLAKEQRLNFGDDIPSALRIAKKKRWNSIEERR
chain 2: GSGSGPTIEEVD

Variants of: B1
Assay: biolayer interferometry; read off a plot

Compared with chain 1 N45S, chain 1 G112S is 6.6-fold lower in Kd: ~6.6 µM for the first, ~1 µM for the second. The second binds more tightly here.
